The values that follow come from paper PMC10229431, “Structures of the sulfite detoxifying F420-dependent enzyme from Methanococcales” (Nature Chemical Biology, 2023).

The subject of one data set is T1, MtFsr.
T1 construct: gene fsr; full length, native purification from M. thermolithotrophicus grown on sulfite (assays) or sulfate (crystals); FAD, siroheme, six [4Fe-4S] clusters per subunit
Briefly: F420H2 oxidation followed at […] nm. Format: biochemical, Methanothermococcus thermolithotrophicus. To be noted: anaerobic, read-out: Apparent Km.

The target of a further data set is T2, MjFsr (Methanocaldococcus jannaschii, UniProt Q58280).
T2 construct: gene fsr; full length, native purification from M. jannaschii grown on sulfite; homotetramer, residues to 620
T2 sequence (Q58280 1-620): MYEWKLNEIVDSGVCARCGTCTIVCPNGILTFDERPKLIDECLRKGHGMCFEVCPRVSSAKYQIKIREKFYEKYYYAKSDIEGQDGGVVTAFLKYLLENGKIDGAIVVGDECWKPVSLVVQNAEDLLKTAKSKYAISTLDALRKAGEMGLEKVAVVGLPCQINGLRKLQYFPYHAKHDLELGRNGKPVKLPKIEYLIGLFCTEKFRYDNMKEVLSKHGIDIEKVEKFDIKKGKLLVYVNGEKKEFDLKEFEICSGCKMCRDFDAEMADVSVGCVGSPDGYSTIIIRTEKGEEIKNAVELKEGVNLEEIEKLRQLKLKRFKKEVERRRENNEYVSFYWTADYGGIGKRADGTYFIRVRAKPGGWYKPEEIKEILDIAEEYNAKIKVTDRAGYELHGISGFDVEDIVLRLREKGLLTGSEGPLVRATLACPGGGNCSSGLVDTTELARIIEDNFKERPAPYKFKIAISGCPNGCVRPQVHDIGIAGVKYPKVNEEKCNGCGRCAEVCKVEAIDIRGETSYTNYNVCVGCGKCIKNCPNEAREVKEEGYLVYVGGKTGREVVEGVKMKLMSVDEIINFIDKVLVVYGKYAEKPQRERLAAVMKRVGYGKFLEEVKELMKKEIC
In words: X-ray crystal structure, […] Å. The note with it: F420H2-oxidase domain. Format: binding.

Data set [1] deals with coenzyme F420-dependent sulfite reductase (Group I Fsr) from Methanothermococcus thermolithotrophicus (Methanothermococcus thermolithotrophicus (endogenous in strain DSM 2095)). In words: native gel or EMSA; anaerobic high-resolution clear-native PAGE (8-15% gradient) of cell extracts of cultures grown on 2 mM Na2S or 2 mM Na2SO3. On the technique in general: Mobility shift assays separate free from complexed probe on a gel.

The target is the same in data set [2]. Briefly: SEC; purified MtFsr on Superdex 200 Increase 10/300 GL, 0.4 ml/min, 25 mM Tris-HCl pH 7.6, 10% v/v glycerol, 2 mM DTT, anaerobic; standards conalbumin, aldolase, ferritin; apparent molecular weight. (In general: Size exclusion chromatography separates by hydrodynamic size, large species first.)
The target is the same in data set [3]. In words: crystal structure; MtFsr at 11 mg/ml cocrystallized with FAD and F420H2; 200 mM lithium sulfate, 100 mM Bis-Tris pH 5.5, 25% w/v PEG 3350; anaerobic, 20 °C; four homotetramers in the asymmetric unit.
Data set [4] deals with the molecule itself. Briefly: crystal structure; MjFsr at 6.1 mg/ml; 45% v/v 2-methyl-2,4-pentanediol, 100 mM Bis-Tris pH 5.5, 200 mM calcium chloride; anaerobic, 20 °C; two half homotetramers in the asymmetric unit.

Like-named read-outs stand apart in the source and are kept apart here.

Usually Km stands for the substrate concentration at which the rate is half of its maximum. As for `O=NO` [NO2^−], the Km in the data set on MtFsr (0-500 µM NaNO2, 50 µM F420H2, 200 mM KH2PO4 pH 7.0, 50 °C) worked out at 2.5 ± 0.2 µM.

In the case of `O=S(O)O` [SO3^2−], the Km in the data set on MtFsr (0-500 µM Na2SO3, 50 µM F420H2, 200 mM KH2PO4 pH 7.0, 50 °C) is 15.6 ± 2 µM.

For `Cc1cc2nc3c(=O)[nH]c(=O)nc-3n(C[C@H](O)[C@H](O)[C@H](O)COP(=O)(O)OP(=O)(O)OC[C@H]3O[C@@H](n4cnc5c(N)ncnc54)[C@H](O)[C@@H]3O)c2cc1C` [FAD], on MjFsr, the “X-ray crystal structure, 2.30 Å” value is on record as “The active site of the F420H2-oxidase domain of Fsr contains a flavin adenine dinucleotide (FAD”.

What is called stoichiometry N is the number of molecules, sites or subunits per partner or assembly. On to “coenzyme F420-dependent sulfite reductase (Group I Fsr) from Methanothermococcus thermolithotrophicus”, for which the stoichiometry N in data set [1], in data set [2] and in data set [3] was 4 each time.

B1: coenzyme F420-dependent sulfite reductase (Group I Fsr) from Methanocaldococcus jannaschii (enzyme, UniProt Q58280 1-620, looked up)
chain: T2 sequence (Q58280 1-620)
notes: Group I coenzyme F420-dependent sulfite reductase (Fsr) of Methanocaldococcus jannaschii DSM 2661; Native enzyme, no tag; Each chain carries FAD, six [4Fe-4S] clusters and a siroheme; also called MjFsr; source: purified natively from M. jannaschii DSM 2661 cells under anaerobic atmosphere (Q Sepharose, Source15Phe, Superdex 200)
With B1, the “stoichiometry N” value in data set [4] stood at 4.
